Data reported in the supplement of paper PMC9170038.

System: MS2 coat protein
Assay: apparent KD of MS2 coat protein; designed switch direction (-1 OFF switch, 1 ON switch): -1; higher = weaker reporter binding
How it was run: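 Each step of the titration lasted 0.8–1.5 h at the lowest concentration and 10–20 min at the highest. The protein, SNAP-549-labelled MS2 coat protein, went from 0.7 or 1.5 nM doubling to 3 µM over RNA switches transcribed on Illumina chips by stalled E. coli RNA polymerase. Normalised cluster fluorescence was curve-fitted, and the per-design median over clusters is given as apparent KD.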

[1] = Eterna round: R95, input ligand: FMN 200 uM
[2] = Eterna round: R95, input ligand: microRNA oligo, concentration not stated
[3] = Eterna round: R95, input ligand: none
[4] = input ligand: microRNA oligo, concentration not stated

Sequence	apparent KD of MS2 coat protein [1]	apparent KD of MS2 coat protein [2]	apparent KD of MS2 coat protein [3]	apparent KD of MS2 coat protein (input ligand: FMN 200 uM)	apparent KD of MS2 coat protein (input ligand: none)	apparent KD of MS2 coat protein [4]
GAAAAGGUAGGAUAUACGAAAAAAAAGGGUAGUAAAAAAACACAUGAGGAUCACCCAUGUAGAAGGACCAAAAG [salish99_ex2_r3_079] (puzzle: Exclusion 2)	0.0357 µM	0.0209 µM	0.0186 µM	–	–	–
GAAAAUAGUGAGGAUAUAUCACGGAUACCCGAGAUAGAAGGCACUACAUGAGGAUCACCCAUGUUCGGGUGUCC [Areleon] (Eterna round: R97, puzzle: Exclusion 6)	–	–	–	0.107 µM	0.0793 µM	–
GAAAGGUAAGGAUAUGCGACUACGGUGAGAUGGUUGACCUGACAUGAGGAUCACCCAUGUAGAAGGUGCUCAAU [Eternabot (L2) Solution 33] (Eterna round: R97, puzzle: Exclusion 2)	–	–	–	0.0678 µM	0.0642 µM	–
GAAGCACAUGAGGAUCACCCAUGUGAGGAUAUCCGUCUGGUCCGGCCGGGCCAGUACCGGAGAAGGCGCGUCGA [Excls1-Va] (puzzle: Exclusion 1)	–	0.0276 µM	–	–	–	–
GAAUAACAUGAGGAUCACCCAUGUUAGGAUAUGACGUCGUUUAGUCUUUAAACGAGCGUUAGAAGGAACAGGUG [Eternabot (L1) Solution 11] (Eterna round: R97, puzzle: Exclusion 1)	–	–	–	0.0708 µM	0.0568 µM	–
GAAUAGCAAGCGAGAUCCCACAUGAGGAUCACCCAUGUGCUCGUCUUAUAAAGUACUGUGACGAAAGUCACGGUACA [Mat - Sensor, turn-off var - Eli Mod - D12] (Eterna round: R97, puzzle: Sensor, turn-off variant 1)	–	–	–	0.0146 µM	0.0178 µM	–
GAAUAGCAAGCGAGAUCCCACAUGAGGAUCACCCAUGUGCUCGUCUUAUAAAGUACUGUGACGAGAGUCACGGUACA [Mat - Sensor, turn-off var - Eli Mod - D14] (Eterna round: R97, puzzle: Sensor, turn-off variant 1)	–	–	–	0.0143 µM	0.0161 µM	–
GAAUGCAAGUAAAGAUCUUACAUGAGGAUCACCCAUGUGCUCGUCUUAUAAAGUACUAUCACGAAAGUGAUAGUACA [Mat - Sensor v3 - turn-off var 1 - Eli Mod - D90] (puzzle: Sensor v3, turn-off variant 1)	0.0163 µM	0.0841 µM	0.0174 µM	–	–	–
GAAUUAAUUAAUUAAUAAUACAUGAGGAUCACCCAUGUAGAUCCUACAUACAAGCUAAGUAGCUCGUCUUAUAAUUA [Stov1/2-A2] (Eterna round: R97, puzzle: Sensor, turn-off variant 1)	–	–	–	0.313 µM	0.261 µM	–
GAAUUCCGAGGAUAUUCGGAACCAGACAUGAGGAUCACCCAUGUGAUGCAGUUUCCGUUCGAAGAAGGUGGAACGC [Eternabot (Original) Solution 28] (Eterna round: R97, puzzle: Exclusion 5)	–	–	–	0.0225 µM	0.0233 µM	–
GAAUUGUGAGGAUAUUAGUUGUACGUCAAUAGACGUAUAAGUGAGAAGGCACAUGAGGAUCACCCAUGUUCCUG [salish99_ex4_r4_401] (Eterna round: R97, puzzle: Exclusion 4)	–	–	–	0.0578 µM	0.0194 µM	–
GACAUGAGGAUCACCCAUGUAAGGGAUGAACUUCUGGGUAGCUAGGAUAUGGCUACAAAGGUGGACCAGAAGGAGCGUACCCUU [Amaqura] (Eterna round: R96, puzzle: Exclusion NG 3)	–	–	–	0.0106 µM	0.0286 µM	0.0143 µM
GACCACUCAGGAUAUCGGACGGGAAACAUGAGGAUCACCCAUGUGAUGCUGAUAUUCGCACGAGAAGGGAGAAUGA [EX5 B.21] (Eterna round: R97, puzzle: Exclusion 5)	–	–	–	0.0198 µM	0.0188 µM	–
GACCUCACGGUCAGGAUAUCAGAACGUAAUGCGCAUGAGAAGGGACAUGAGGAUCACCCAUGUGGGCUCGUCGC [Maedvequ] (puzzle: Brourd's mod of Exclusion 4)	–	0.0118 µM	–	–	–	–
GACCUGGCGAAGGAUAUCUGGAGGGAGUACAUCAGAGAAGGUCGCACAUGAGGAUCACCCAUGUUUGCAAUAGC [Eternabot (Original) Solution 22] (Eterna round: R97, puzzle: Exclusion 6)	–	–	–	0.0257 µM	0.0216 µM	–
GACGAAAGAGGAUAUACCGUACGACCCUCGUCAGGGAUCCGACAUGAGGAUCACCCAUGUAGAAGGCUUGCGUC [Eternabot (Original) Solution 25] (Eterna round: R97, puzzle: Exclusion 2)	–	–	–	0.763 µM	0.2 µM	–

Sequence	apparent KD of MS2 coat protein [1]	apparent KD of MS2 coat protein [2]	apparent KD of MS2 coat protein [3]	apparent KD of MS2 coat protein (input ligand: FMN 200 uM)	apparent KD of MS2 coat protein (input ligand: none)	apparent KD of MS2 coat protein [4]
GACGCUGACCGAGGAUAUACAAUAAAACAACAAACUCCUCGUGUCAGAACAUGAGGAUCACCCAUGUAGAAGGCGGCAGGUCUA [Rilebibidi] (Eterna round: R96, puzzle: Exclusion NG 2)	–	–	–	0.0785 µM	0.0581 µM	0.0444 µM
GACUAAAUGUGGUUUGGUUACAUGAGGAUCACCCAUGUUGGUCUAAGAACAUGUCUUUUGUACGCUUGUCUUAUAUA [JR_SV3TOV1_Sub067] (puzzle: Sensor v3, turn-off variant 1)	0.63 µM	0.324 µM	0.896 µM	–	–	–
GACUGGACGUGGUCUGGUAACAUGAGGAUCACCCAUGUAGGUCUAAGAACAUGCCUUUUGCACGCUCGUCUUAUAUA [JR_SV3TOV1_Sub064] (puzzle: Sensor v3, turn-off variant 1)	0.0333 µM	0.0348 µM	0.0327 µM	–	–	–
GAGAAAUUAUAGGAUAUCGAAAGUAUAAUUUAACGAGAAGGAUGAACAUGAGGAUCACCCAUGUGGUAUCAUGG [JL-ex6-3.10] (puzzle: Exclusion 6)	0.283 µM	0.0882 µM	0.297 µM	–	–	–
GAGAACUGAGGAUAUACAUGAGGAUCACCCAUGUUGAGAAGAAAGUAUAAAAGAUUGUGUAGAAGGCAGAGAGA [JR_Ex3_Sub069] (Eterna round: R97, puzzle: Exclusion 3)	–	–	–	0.0523 µM	0.0358 µM	–
GAGAAGGUAGGAUAUACGAAGAAAAAGGGUAGAAGAAGAACACAUGAGGAUCACCCAUGUAGAAGGACCAAGAG [Mat - Exclusion 2 - Mod of my Tesla design - D17] (puzzle: Exclusion 2)	0.038 µM	0.0215 µM	0.0225 µM	–	–	–
GAGGAGCAAGGAUAUACGAGGAUAUGGAAGGUUGGAGAGUGACAUGAGGAUCACCCAUGUAGAAGGUGCAAGGG [JR_Exclu2_Sub096] (puzzle: Exclusion 2)	0.0659 µM	0.0918 µM	0.131 µM	–	–	–
GAGGAUGUAGGAUAUACUUAGGGUGAGCUCUAAGUGAAUCAACAUGAGGAUCACCCAUGUAGAAGGGCAGGACG [Eternabot (Original) Solution 37] (Eterna round: R97, puzzle: Exclusion 2)	–	–	–	0.248 µM	0.122 µM	–
GAGGGACAUGAGGAUCACCCAUGUGAGGAUAUGUGAGAAGGAUUGGAGAGAAUAAGAAACAGAAGGCGCUGUAG [JR_Exclu1_Sub088] (puzzle: Exclusion 1)	0.107 µM	0.0889 µM	0.138 µM	–	–	–
GAGUACAGAGGAUAUACAUGAGGAUCACCCAUGUGUUUCAGCUAGGAGACUAGCGAAAGUAGAAGGCUGUACUG [salish99_ex3_r4_006] (Eterna round: R97, puzzle: Exclusion 3)	–	–	–	0.0234 µM	0.0103 µM	–
GAGUAGGUAGGAUAUACGAUAAUAUAGGGUAGAUAUAUAACACAUGAGGAUCACCCAUGUAGAAGGACCAGGAG [Mat - Exclusion 2 - Mod of my Tesla design - D63] (puzzle: Exclusion 2)	0.115 µM	0.0383 µM	0.0366 µM	–	–	–
GAGUGACAUGAGGAUCACCCAUGUGAGGAUAUCGGCCGGACCUUGUUAGCUUCCACCGCGAGAAGGCACAUCGG [Exclusion 1 V29] (puzzle: Exclusion 1)	–	0.0203 µM	–	–	–	–
GAGUGGCAAGGAUAUACAGAGGAGAGGAAGGCAAGAGGUGGACAUGAGGAUCACCCAUGUAGAAGGUGCAGAGG [JR_Exclu2_Sub025] (puzzle: Exclusion 2)	0.157 µM	0.134 µM	0.288 µM	–	–	–
GAUACACAUGAGGAUCACCCAUGUUAGGAUAUUAGCGGGAAAGCUGUCAGACAGUCGAUGAGAAGGAACAGGAG [Excls1-VIII] (puzzle: Exclusion 1)	–	0.0293 µM	–	–	–	–
GAUAGAGCAGGAUAUCGAGAUCCGCACAUGAGGAUCACCCAUGUUCGGUCGAAAGACCGACGAGAAGGGCUCUAUC [Omei Ex5 E8] (Eterna round: R97, puzzle: Exclusion 5)	–	–	–	0.639 µM	0.603 µM	–
